We go through one substance from paper PMC6205950, “4-Chlorophenol Oxidation Depends on the Activation of an AraC-Type Transcriptional Regulator, CphR, in Rhodococcus sp. Strain YH-5B” (Frontiers in Microbiology, 2018).

Common to all, as to test: purified protein
For data set [1], the system named is O=[N+]([O-])c1cccc(O)c1. The note with it: 200 μM NADH, 25 μM FAD, 50 mM phosphate pH 7.5.
In data set [2] the test system is Oc1ccc(Cl)cc1. The note with it: 200 μM NADH, 25 μM FAD, 50 mM phosphate pH 7.5, text prints 8.7 ± 1.1.
For data set [3], the system named is Oc1ccccc1. Particulars: 200 μM NADH, 25 μM FAD, 50 mM phosphate pH 7.5.

What is called Km is the concentration of substrate that gives half-maximal velocity. As a reminder, the kcat is the number of substrate molecules converted per active site and unit of time at saturation.

Take “two-component 4-CP monooxygenase (H6-CphA1 and H6-CphA2) (Rhodococcus sp. (in: high G+C Gram-positive bacteria))”: the Km was 63.2 ± 7.7 µM in data set [1], 8.7 ± 1.2 µM in data set [2] and 9.6 ± 0.9 µM in data set [3]. Further, the catalytic constant (kcat) in data set [2] amounted to 0.0103 ± 0.00067 s⁻¹.
